Experimental data: article PMC5516325, “Sequence-based identification of inositol monophosphatase-like histidinol-phosphate phosphatases (HisN) in Corynebacterium glutamicum, Actinobacteria, and beyond” (BMC Microbiology, 2017)
Blank lines part the entries; values can stand above or below the molecule they belong to.

Columns and labels:
Assay type in all cases: biochemical, Corynebacterium glutamicum
Cg0911 [1] = system: T1, Cg0911; experiment: phosphate release, malachite green; Hill equation fit; conditions: 5 mM MgSO4, 100 mM triethanolamine, pH 7.35, 30 °C
T1 construct: tag-free (C-terminal intein tag self-cleaved, IMPACT system), expressed in E. coli ER2566
Source text: phosphate release, malachite green; Hill equation fit on Cg0911

Cg0911 [2] = system: T1, Cg0911; experiment: phosphate release from HolP, malachite green; activation; conditions: activator (also reaction product); 500 μM HolP, 5 mM MgSO4, 1 M triethanolamine, pH 7.35, 30 °C; read-out: Half maximal stimulation
[3] = substrate: N[C@H](COP(=O)(O)O)Cc1c[nH]cn1; experiment: phosphate release, malachite green; Hill equation fit; conditions: 5 mM MgSO4, 100 mM triethanolamine, pH 7.35, 30 °C
Source text: phosphate release, malachite green; Hill equation fit on HisN (HisNCg)

Molecule: N[C@H](COP(=O)(O)O)Cc1c[nH]cn1 [L-histidinol-phosphate]
Km (Cg0911 [1]): 638 ± 70.5 µM

EC50 (Cg0911 [2]): 860 ± 60 µM
Molecule: N[C@H](CO)Cc1c[nH]cn1 [L-histidinol]

B1: HisN (HisNCg) (Corynebacterium glutamicum ATCC 13032) (protein)
chain: MSKYADDLALALELAELADSITLDRFEASDLEVSSKPDMTPVSDADLATEEALREKIATARPADSILGEEFGGDVEFSGRQWIIDPIDGTKNYVRGVPVWATLIALLDNGKPVAGVISAPALARRWWASEGAGAWRTFNGSSPRKLSVSQVSKLDDASLSFSSLSGWAERDLRDQFVSLTDTTWRLRGYGDFFSYCLVAEGAVDIAAEPEVSLWDLAPLSILVTEAGGKFTSLAGVDGPHGGDAVATNGILHDETLDRLK
notes: tag-free (C-terminal intein tag self-cleaved, IMPACT system, NEB), expressed in E. coli ER2566
Km [3]: 23.6 ± 1.4 µM
kcat [3]: 1.04 ± 0.06 s⁻¹
kcat/Km [3]: 44100 M⁻¹ s⁻¹
